For one variant, screen value and ratio to parent results are on record in article PMC6041257.

B1: GLI1 (transfected, wild type) [human] / SUFU (transfected, HEK293T) [not stated] (parent)
chain 1: MFNSMTPPPISSYGEPCCLRPLPSQGAPSVGTEGLSGPPFCHQANLMSGPHSYGPARETNSCTEGPLFSSPRSAVKLTKKRALSISPLSDASLDLQTVIRTSPSSLVAFINSRCTSPGGSYGHLSIGTMSPSLGFPAQMNHQKGPSPSFGVQPCGPHDSARGGMIPHPQSRGPFPTCQLKSELDMLVGKCREEPLEGDMSSPNSTGIQDPLLGMLDGREDLEREEKREPESVYETDCRWDGCSQEFDSQEQLVHHINSEHIHGERKEFVCHWGGCSRELRPFKAQYMLVVHMRRHTGEKPHKCTFEGCRKSYSRLENLKTHLRSHTGEKPYMCEHEGCSKAFSNASDRAKHQNRTHSNEKPYVCKLPGCTKRYTDPSSLRKHVKTVHGPDAHVTKRHRGDGPLPRAPSISTVEPKREREGGPIREESRLTVPEGAMKPQPSPGAQSSCSSDHSPAGSAANTDSGVEMTGNAGGSTEDLSSLDEGPCIAGTGLSTLRRLENLRLDQLHQLRPIGTRGLKLPSLSHTGTTVSRRVGPPVSLERRSSSSSSISSAYTVSRRSSLASPFPPGSPPENGASSLPGLMPAQHYLLRARYASARGGGTSPTAASSLDRIGGLPMPPWRSRAEYPGYNPNAGVTRRASDPAQAADRPAPARVQRFKSLGCVHTPPTVAGGGQNFDPYLPTSVYSPQPPSITENAAMDARGLQEEPEVGTSMVGSGLNPYMDFPPTDTLGYGGPEGAAAEPYGARGPGSLPLGPGPPTNYGPNPCPQQASYPDPTQETWGEFPSHSGLYPGPKALGGTYSQCPRLEHYGQVQVKPEQGCPVGSDSTGLAPCLNAHPSEGPPHPQPLFSHYPQPSPPQYLQSGPYTQPPPDYLPSEPRPCLDFDSPTHSTGQLKAQLVCNYVQSQQELLWEGGGREDAPAQEPSYQSPKFLGGSQVSPSRAKAPVNTYGPGFGPNLPNHKSGSYPTPSPCHENFVVGANRASHRAAAPPRLLPPLPTCYGPLKVGGTNPSCGHPEVGRLGGGPALYPPPEGQVCNPLDSLDLDNTQLDFVAILDEPQGLSPPPSHDQRGSSGHTPPPSGPPNMAVGNMSVLLRSLPGETEFLNSSA
chain 2: MAELRPSGAPGPTAPPAPGPTAPPAFASLFPPGLHAIYGECRRLYPDQPNPLQVTAIVKYWLGGPDPLDYVSMYRNVGSPSANIPEHWHYISFGLSDLYGDNRVHEFTGTDGPSGFGFELTFRLKRETGESAPPTWPAELMQGLARYVFQSENTFCSGDHVSWHSPLDNSESRIQHMLLTEDPQMQPVQTPFGVVTFLQIVGVCTEELHSAQQWNGQGILELLRTVPIAGGPWLITDMRRGETIFEIDPHLQERVDKGIETDGSNLSGVSAKCAWDDLSRPPEDDEDSRSICIGTQPRRLSGKDTEQIRETLRRGLEINSKPVLPPINPQRQNGLAHDRAPSRKDSLESDSSTAIIPHELIRTRQLESVHLKFNQESGALIPLCLRGRLLHGRHFTYKSITGDMAITFVSTGVEGAFATEEHPYAAHGPWLQILLTEEFVEKMLEDLEDLTSPEEFKLPKEYSWPEKKLKVSILPDVVFDSPLH

In one assay the parent is B1. The experiment in a line: co-immunoprecipitation (IP: HA (SUFU-HA), IB: Flag (GLI1-Flag)). The conditions noted are these: with SUFU (transfected, HEK293T); HEK293T cells; SUFU-HA + GLI1-Flag + MEKK3-Flag co-expressed; parent: 3.
As to chain 1 S201D S204D S243D S968D T1074D S1078D, the screen value amounted to 3.9.

The same assay, now with this note: with SUFU (transfected, HEK293T); HEK293T cells; SUFU-HA + GLI1-Flag + Vector (no MEKK3); parent: 1.
With chain 1 S201D S204D S243D S968D T1074D S1078D, the ratio to parent was 3.
